Measurements as given in the supplement of paper PMC6757056.
± gives the standard deviation of the averaged measurements.

B1: library; a variant is named by its letters at N, in order (parent)
chain: GCUGUCACCGGUGCUUGGUACGUUAUAUUCAGCCGGUCUGAUGAGUCUNNNNNNAGACGAAACAGC

Assays:
(6R,S)-folinic acid [1] = variants of: B1; test: normalized RNA/DNA level without ligand (relative to sTRSVctl = 100) (log10 (% of sTRSVctl)); HEK293T overexpressing SLC46A1; higher = less ribozyme self-cleavage, higher mRNA level; details: without (6R,S)-folinic acid; ligand present: no
Summary of the method: (§1)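 Ribozyme switch library plasmids linked to reporters were introduced into HEK293T cells at 4 µg per 6-well well, with ligand, if any, added 1 h before. Total RNA was extracted with EDTA 72 h later, reverse-transcribed, amplified, barcoded and sequenced. RNA level was computed from RNA over DNA reads relative to a spiked-in non-cleaving sequence or the top sequences, then scaled and log-transformed. The top set was 25 sequences, values were ×100 and log10, and the cutoff was ≥100 DNA reads.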

(6R,S)-folinic acid [2] = variants of: B1; test: normalized RNA/DNA level with ligand (relative to sTRSVctl = 100) (log10 (% of sTRSVctl)); HEK293T overexpressing SLC46A1; ligand concentration (+) RNA-Seq: 6 mM; higher = less ribozyme self-cleavage, higher mRNA level; details: with (6R,S)-folinic acid; ligand present: yes
Summary of the method: as §1

Variant	normalized RNA/DNA level without ligand (log10) ((6R,S)-folinic acid [1])	normalized RNA/DNA level with ligand (log10) ((6R,S)-folinic acid [2])
GGCCCC	2.023 ± 0.0026	2.01 ± 0.026
GGCCCA	2.053 ± 0.01	2.032 ± 0.012
AGCGUU	2 ± 0.021	2.015 ± 0.0096
AGCGUA	1.973 ± 0.0096	2 ± 0.028
AGCGUC	2.083 ± 0.0033	2.06 ± 0.037
AGCGUG	1.92 ± 0.023	2.02 ± 0.03
UGCAAG	1.778 ± 0.01	1.96 ± 0.029
UGCAAC	1.95 ± 0.0091	1.99 ± 0.029
UGCGAA	1.966 ± 0.011	1.97 ± 0.029
CGCCGU	2.038 ± 0.0097	2.05 ± 0.065
CGCCGA	2.027 ± 0.0027	2.08 ± 0.044
CGCCGG	2.03 ± 0.026	2.034 ± 0.017
CGCCGC	2.062 ± 0.0024	2.03 ± 0.047
UGAUUC	2.058 ± 0.0048	2.04 ± 0.04
UGAUUU	1.9907 ± 0.00083	2.02 ± 0.023
GGAUCA	2.02 ± 0.021	2.03 ± 0.05
GGAUCU	2.037 ± 0.0059	2.03 ± 0.045
GGAUCC	2.0688 ± 0.00086	2.06 ± 0.037
GGAUCG	2.0373 ± 0.00033	2.08 ± 0.045
AGCCAA	1.9858 ± 0.00027	1.99 ± 0.037
AGCCAG	1.985 ± 0.0073	2.04 ± 0.035
AGCCAU	1.986 ± 0.013	1.99 ± 0.029
AGCCAC	2.016 ± 0.003	2 ± 0.037
GGCCAC	2.022 ± 0.0039	1.99 ± 0.016

Variant	normalized RNA/DNA level without ligand (log10) ((6R,S)-folinic acid [1])	normalized RNA/DNA level with ligand (log10) ((6R,S)-folinic acid [2])
GGCCAG	2.037 ± 0.0046	2.016 ± 0.02
AGCUAC	2.029 ± 0.012	2.01 ± 0.063
AGCUAG	1.935 ± 0.002	2.01 ± 0.025
AGCUAA	2 ± 0.033	1.999 ± 0.0025
AGCUAU	1.987 ± 0.014	2.009 ± 0.018
CGAGUA	1.965 ± 0.0014	2 ± 0.04
CGAGUC	2.053 ± 0.0089	2.037 ± 0.0081
UGCAGU	1.9094 ± 0.0015	1.96 ± 0.026
UGCAGC	1.982 ± 0.0063	2.012 ± 0.018
CGAUAU	1.949 ± 0.0095	2.01 ± 0.028
CGAUAA	1.946 ± 0.015	1.98 ± 0.04
CGAUAG	1.959 ± 0.0024	1.977 ± 0.01
CGAUAC	1.995 ± 0.013	2.015 ± 0.0083
CGCAAA	1.9697 ± 0.001	1.988 ± 0.0069
CGCAAU	1.9357 ± 0.0015	1.968 ± 0.014
CGCAAG	2.011 ± 0.0045	2.02 ± 0.025
CGCCAC	2 ± 0.028	1.99 ± 0.042
CGCCAA	1.973 ± 0.014	2.02 ± 0.048
CGCCAU	1.986 ± 0.0097	1.98 ± 0.034
UGCCUA	2.03 ± 0.023	2.03 ± 0.023
UGCCUC	2.065 ± 0.0067	2 ± 0.065
UGCCUU	2.0129 ± 0.0012	2.011 ± 0.018
CGCGCA	2.036 ± 0.014	2.04 ± 0.026
CGCGCU	2.08 ± 0.043	2.05 ± 0.047

Variant	normalized RNA/DNA level without ligand (log10) ((6R,S)-folinic acid [1])	normalized RNA/DNA level with ligand (log10) ((6R,S)-folinic acid [2])
CGCGCG	1.995 ± 0.016	1.95 ± 0.1
CGCGCC	2.096 ± 0.0053	2.0477 ± 0.00068
UGAUCC	2.059 ± 0.012	2.03 ± 0.049
UGAUCU	1.995 ± 0.012	2.04 ± 0.091
UGAUCA	1.99 ± 0.021	2 ± 0.038
CGCAUC	2.08 ± 0.021	1.97 ± 0.036
CGCAUG	2.01 ± 0.019	2.01 ± 0.022
GGCCUG	2.064 ± 0.015	2.03 ± 0.085
GGCCUA	2.04 ± 0.021	2.01 ± 0.045
GGCCUC	2.044 ± 0.018	2.06 ± 0.025
GGCCUU	2.108 ± 0.0078	2.09 ± 0.042
AGCGGC	2.104 ± 0.0038	2.05 ± 0.039
AGCGGG	2.004 ± 0.016	2.055 ± 0.019
AGCGGA	2.024 ± 0.0064	2.024 ± 0.01
UGCCGU	2.009 ± 0.019	2.02 ± 0.042
UGCCGC	2.03 ± 0.031	2.02 ± 0.048
UGCCGA	1.9547 ± 0.0011	2.02 ± 0.046
GGAUGU	1.972 ± 0.0047	2.03 ± 0.052
GGAUGG	1.948 ± 0.012	2.02 ± 0.033
GGAUGC	1.912 ± 0.002	1.962 ± 0.015
GGAUGA	2.024 ± 0.02	2.058 ± 0.0075
CGCAGA	2.039 ± 0.0068	2.051 ± 0.015
CGCAGG	1.953 ± 0.012	2.03 ± 0.039
CGCAGU	2.037 ± 0.015	2.04 ± 0.049

Variant	normalized RNA/DNA level without ligand (log10) ((6R,S)-folinic acid [1])	normalized RNA/DNA level with ligand (log10) ((6R,S)-folinic acid [2])
GGCAUG	2.064 ± 0.0071	2.03 ± 0.033
GGCAUU	2.08 ± 0.025	2.04 ± 0.039
GGCAUC	2.055 ± 0.014	2.03 ± 0.033
AGCAAU	1.995 ± 0.0032	2.01 ± 0.033
AGCAAG	1.935 ± 0.0032	2.01 ± 0.025
AGCAAC	2.004 ± 0.0095	2.01 ± 0.038
AGCAUA	1.985 ± 0.014	2.017 ± 0.016
AGCAUU	2.012 ± 0.0048	2.01 ± 0.028
AGCAUC	2.082 ± 0.012	2.0495 ± 0.0016
AGCAUG	1.957 ± 0.004	2.03 ± 0.018
GGCGAA	2.051 ± 0.0044	2.04 ± 0.021
GGCGAG	2.05 ± 0.017	2.018 ± 0.018
AGAUUU	2.0581 ± 0.0011	2.04 ± 0.024
AGAUUG	1.89 ± 0.014	2.004 ± 0.018
CGCGUA	1.993 ± 0.017	2.006 ± 0.0037
CGCGUU	2.094 ± 0.014	2.07 ± 0.03
CGCGUG	1.963 ± 0.0059	2 ± 0.027
CGCGUC	2.071 ± 0.0094	2.06 ± 0.036
GGCCGG	2.08 ± 0.021	2.051 ± 0.015
GGCCGC	2.073 ± 0.012	2.083 ± 0.011
GGCCGU	2.0789 ± 0.0012	2.02 ± 0.007
GGCCGA	2.081 ± 0.0077	2.05 ± 0.037
GGAUAU	2.0169 ± 0.0015	2.02 ± 0.023
GGAUAG	1.95 ± 0.0034	2.03 ± 0.038

Variant	normalized RNA/DNA level without ligand (log10) ((6R,S)-folinic acid [1])	normalized RNA/DNA level with ligand (log10) ((6R,S)-folinic acid [2])
GGAUAC	1.988 ± 0.011	2.034 ± 0.013
UGCAUA	1.948 ± 0.015	1.99 ± 0.068
UGCAUC	2.07 ± 0.032	2.035 ± 0.015
GGCUCA	2.073 ± 0.011	2.01 ± 0.033
GGCAAG	2.034 ± 0.007	2.003 ± 0.017
GGCAAC	2.057 ± 0.0039	2.04 ± 0.0099
GGCAAA	2.069 ± 0.0036	2.04 ± 0.044
GGCAAU	2.057 ± 0.01	2.04 ± 0.03
CGCCUA	2.05 ± 0.0096	2.05 ± 0.061
CGCCUU	2.0227 ± 0.00028	2.007 ± 0.018
CGCCUG	2.057 ± 0.011	2.056 ± 0.002
CGCCUC	2.039 ± 0.0057	1.992 ± 0.015
AGAGUA	1.94 ± 0.0059	2.01 ± 0.033
AGAGUG	1.71 ± 0.035	1.98 ± 0.039
AGAGUC	2.059 ± 0.0045	2.02 ± 0.034
AGAGUU	2.002 ± 0.0079	2.011 ± 0.0021
CGAUUG	2.028 ± 0.018	2.02 ± 0.035
CGAUUC	2.089 ± 0.019	2.08 ± 0.048
CGAUUU	1.984 ± 0.0069	2 ± 0.026
CGAUUA	1.958 ± 0.017	1.992 ± 0.013
